Experimental data from patent publication US9226969B2, “Salt form of a multi-arm polymer-drug conjugate” (priority 2009, dated 2016).
Read-outs that look alike come from different tables or passages of the source.

Legend:
[1] = 40° C. and 75% relative humidity, over 3 months
Description: Compositions containing varying amounts of protonated irinotecan, as well as differing in the amount of TFA versus HCl salt were examined.
Samples were taken and analyzed on a periodic basis over the course of the studies.
FIG. 2 and FIG. 3 show another set of data obtained from the sample containing >99% HCl salt (<1% free base, squares) and a sample consisting of 86% total salts (14% free base, diamonds) that were stored at 40° C. and 75% relative humidity. […] The increase in smaller PEG species is indicative of decomposition of the PEG backbone to provide multiple PEG species.

[2] = Transesterification of irinotecan-containing PEG species; details: K2CO3 in CH3OH, 20° C., after 45 minutes
Description: (§1) Experiments were performed to determine the fate of the irinotecan-containing PEG species in 4-arm-PEG-Gly-Irino-20K mixed TFA.chloride salt under transesterification (K2CO3 in CH3OH, 20° C.) and aqueous hydrolysis (pH 10, 20° C.) conditions.

[3] = Aqueous hydrolysis at pH 10; details: pH 10, 20° C., within 24 hours
Description: as §1

Substance | free irinotecan (after 4 weeks at 40° C.) | total product related species (after 4 weeks at 40° C.) | free irinotecan (initial value, before storage) | total product related species (initial value, before storage) | increase in free irinotecan (stability with respect to hydrolysis) [1] | increase in smaller PEG species (PEG backbone decomposition) ([1]; listed as HCl salt) | increase in smaller PEG species (PEG backbone decomposition) ([1]; listed as hydrochloride salt) | transesterification reaction completion [2] | aqueous hydrolysis reaction completion [3]
Pentaerythritolyl-4-Arm-(PEG-1-Methylene-2Oxo-Vinylamino Acetate Linked-Irinotecan)-20K [listing 1 of 2 here] | 1.25% | 97.0% | 0.4% | 98.7% | greater hydrolytic stability than either the free base or mixed TFA.hydrochloride salt | more prone to PEG backbone decomposition than the mixed salt sample containing 14% free base | greater degree of backbone degradation |  | 
Pentaerythritolyl-4-Arm-(PEG-1-Methylene-2Oxo-Vinylamino Acetate Linked-Irinotecan)-20K [listing 2 of 2 here] |  |  |  |  |  |  |  | > 99% | > 99%
